Assay results as given in PMC7672443, “Structural basis of the XPB helicase–Bax1 nuclease complex interacting with the repair bubble DNA” (Nucleic Acids Research, 2020).
Numbering of substitutions follows the chain as printed.

What was measured:
StXPB-Bax1^ΔC = biological target: T1, StXPB-Bax1^ΔC (Sulfurisphaera tokodaii, UniProt Q970I2); conditions: phosphate in the ATP-binding site of XPB, DNA-free heterodimer; NH4-citrate pH 7.5, PEG3350
T1 construct: gene xpb2

StXPB [1] = biological target: T2, StXPB (Sulfurisphaera tokodaii, UniProt Q970I2 2-439); test: EMSA; stable complex at high protein:DNA ratio; EMSA: 25 mM Tris-Cl pH 7.5, 100 mM NaCl, 5% glycerol, 1 mM DTT, room temperature 40 min; 0.8 uM forked DNA or 0.3 uM bubble DNA; 4% TBE native gel, ethidium bromide; conditions: protein: recombinant; tags: N-terminal His8 (PreScission; removed); 3 nt mismatch bubble
T2 sequence: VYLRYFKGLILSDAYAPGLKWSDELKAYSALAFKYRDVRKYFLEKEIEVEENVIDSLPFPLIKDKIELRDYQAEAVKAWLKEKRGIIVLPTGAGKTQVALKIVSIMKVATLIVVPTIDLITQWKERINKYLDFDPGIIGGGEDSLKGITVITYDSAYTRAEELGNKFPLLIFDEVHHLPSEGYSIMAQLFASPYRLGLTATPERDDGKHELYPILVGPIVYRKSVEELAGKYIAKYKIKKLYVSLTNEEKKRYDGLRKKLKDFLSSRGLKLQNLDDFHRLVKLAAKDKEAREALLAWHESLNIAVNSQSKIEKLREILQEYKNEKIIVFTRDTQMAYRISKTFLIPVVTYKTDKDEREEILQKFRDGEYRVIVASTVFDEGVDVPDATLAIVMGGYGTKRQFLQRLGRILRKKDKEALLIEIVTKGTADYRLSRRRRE

StXPB [2] = biological target: T2, StXPB; test: EMSA; stable complex; EMSA: 25 mM Tris-Cl pH 7.5, 100 mM NaCl, 5% glycerol, 1 mM DTT, room temperature 40 min; 0.8 uM forked DNA or 0.3 uM bubble DNA; 4% TBE native gel, ethidium bromide; conditions: protein: recombinant, tags: N-terminal His8 (PreScission; removed)
StXPB [3] = biological target: T2, StXPB; test: EMSA; lower affinity than with Bax1; EMSA: 25 mM Tris-Cl pH 7.5, 100 mM NaCl, 5% glycerol, 1 mM DTT, room temperature 40 min; 0.8 uM forked DNA or 0.3 uM bubble DNA; 4% TBE native gel, ethidium bromide; conditions: protein: recombinant; tags: N-terminal His8 (PreScission; removed); fork: 22 bp duplex, 10 nt arms

T1 sequence (Q970I1 2-373 partner, one chain of several): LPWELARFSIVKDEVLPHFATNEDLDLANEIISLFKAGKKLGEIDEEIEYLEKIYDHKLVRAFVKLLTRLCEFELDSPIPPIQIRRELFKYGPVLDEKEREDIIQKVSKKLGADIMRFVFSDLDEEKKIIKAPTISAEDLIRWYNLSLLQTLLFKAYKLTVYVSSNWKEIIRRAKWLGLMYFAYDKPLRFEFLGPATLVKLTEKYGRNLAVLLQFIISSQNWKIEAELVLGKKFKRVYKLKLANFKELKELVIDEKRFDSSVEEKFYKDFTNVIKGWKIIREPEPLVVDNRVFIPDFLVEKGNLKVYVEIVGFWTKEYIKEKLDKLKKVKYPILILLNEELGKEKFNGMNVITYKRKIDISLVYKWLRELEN

**Q.** Which “X-ray crystallography, 2.96 Å” value (StXPB-Bax1^ΔC) does the source give for O=P(O)(O)O [phosphate ion] here?
**A.** Its value is “the ATP binding site of XPB contains a bound phosphate ion”.

B1: bubble-3 DNA (dsDNA)
DNA 1: TAGTCACAGCTGATTTTGCTCTGCTCCATAGT
DNA 2: ACTATGGAGCAGAGCTTTATCAGCTGTGACTA
**Q.** Does B1 bind (StXPB [1])?
**A.** Result: binds

B2: bubble-4 DNA (dsDNA)
DNA 1: B1 DNA 1 with G18T
DNA 2: B1 DNA 2 with C15T
**Q.** Does B2 bind (StXPB [2]; 4 nt mismatch bubble)?
**A.** Result: binds

B3: forked DNA (dsDNA)
DNA 1: B1 DNA 1 with T16G, T17C
DNA 2: TGATACTTCGAGAGCGCAATCAGCTGTGACTA
**Q.** Does B3 bind (StXPB [3])?
**A.** Result: binds

B4: bubble-5 DNA (dsDNA)
DNA 1: B1 DNA 1 with G18T
DNA 2: B1 DNA 2 with C15T, A19T
**Q.** Does B4 bind (StXPB [2]; 32 nt strands, blunt, internal 5 nt T:T mismatch bubble)?
**A.** Result: binds
